In patent US20190040155A1 (AFFIMED, published 2019):

Key:
CD30 [1] = target: T1, CD30 (UniProt P28908 19-595, limits assumed); experiment: flow cytometry on Karpas-299 cells
T1 construct: whole, on cells; also called CD30 on CD19-/CD30+ KARPAS-299 cells
T1 sequence (looked up): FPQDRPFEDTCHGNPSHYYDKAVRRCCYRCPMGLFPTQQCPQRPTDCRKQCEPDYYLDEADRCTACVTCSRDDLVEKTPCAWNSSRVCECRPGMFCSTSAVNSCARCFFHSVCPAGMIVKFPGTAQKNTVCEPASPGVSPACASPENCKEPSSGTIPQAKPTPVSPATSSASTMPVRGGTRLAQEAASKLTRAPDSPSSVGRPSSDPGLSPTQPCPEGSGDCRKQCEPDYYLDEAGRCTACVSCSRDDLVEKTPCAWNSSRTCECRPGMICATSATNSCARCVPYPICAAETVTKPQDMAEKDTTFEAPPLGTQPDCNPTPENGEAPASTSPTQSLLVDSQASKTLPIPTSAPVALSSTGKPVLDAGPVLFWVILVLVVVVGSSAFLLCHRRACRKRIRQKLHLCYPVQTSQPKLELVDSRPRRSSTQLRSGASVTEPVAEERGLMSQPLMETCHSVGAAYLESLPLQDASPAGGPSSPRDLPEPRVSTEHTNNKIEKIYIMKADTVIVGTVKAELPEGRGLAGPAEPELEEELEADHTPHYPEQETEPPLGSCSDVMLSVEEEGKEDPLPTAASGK
Procedure: (§1) Single-positive CD19+/CD30− Raji and CD19-/CD30+ KARPAS-299 cells as well as double-positive CD19+/CD30+ MEC-1 were stained with serial dilutions of the trispecific antibody molecules and cell surface bound antibodies were detected by mAb anti-His followed by FITC-conjugated goat anti-mouse IgG. Mean fluorescence intensities determined by flow cytometry were used to calculate KD values by non-linear regression. KD values for trispecific antibody molecules were determined in two independent experiments. […]
(§2) After repeated washing with FACS buffer, cell-bound antibodies were detected with 10 μg/mL anti-His mAb 13/45/31-2 (Dianova, Hamburg, Germany, cat.: DIA910-1MG) followed by 15 μg/mL FITC-conjugated goat anti-mouse antibody (Dianova, cat.: 115-095-062). […] The fluorescence of 2-5×10³ living cells was measured using a Beckman-Coulter FC500 MPL flow cytometer using the MXP software (Beckman-Coulter, Krefeld, Germany) or a Millipore Guava EasyCyte flow cytometer (Merck Millipore, Schwalbach, Germany). Mean fluorescence intensities of the cell samples were calculated using CXP software (Beckman-Coulter) or Incyte software (Merck Millipore, Schwalbach, Germany). […]

CD19 [2] = target: T2, CD19 (UniProt P15391 20-556, limits assumed); experiment: flow cytometry on Raji cells
T2 construct: whole, on cells; Raji is a human cell line; also called CD19 on CD19+/CD30- Raji cells
T2 sequence (looked up): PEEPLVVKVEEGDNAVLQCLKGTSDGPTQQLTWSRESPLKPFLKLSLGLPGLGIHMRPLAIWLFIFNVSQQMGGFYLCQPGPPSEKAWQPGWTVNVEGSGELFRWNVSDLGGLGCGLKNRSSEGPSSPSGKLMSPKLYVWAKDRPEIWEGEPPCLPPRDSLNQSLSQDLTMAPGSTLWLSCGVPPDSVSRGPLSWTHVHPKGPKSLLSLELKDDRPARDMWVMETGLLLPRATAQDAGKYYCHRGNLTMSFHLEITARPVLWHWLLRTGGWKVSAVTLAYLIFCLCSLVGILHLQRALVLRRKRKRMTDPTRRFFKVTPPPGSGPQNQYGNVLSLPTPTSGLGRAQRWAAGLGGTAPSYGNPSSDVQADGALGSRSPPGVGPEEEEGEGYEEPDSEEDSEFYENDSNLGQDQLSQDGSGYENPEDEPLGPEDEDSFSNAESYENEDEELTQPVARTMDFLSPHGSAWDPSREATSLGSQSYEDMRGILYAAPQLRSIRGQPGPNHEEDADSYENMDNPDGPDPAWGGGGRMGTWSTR
Procedure: as §1, §2

CD16A (FcγRIIIA) = target: T3, CD16A (FcγRIIIA) (human, UniProt P08637 17-254); experiment: flow cytometry on primary NK cells
T3 construct: whole, on cells; also called CD16A on primary NK cells
T3 sequence (P08637 17-254): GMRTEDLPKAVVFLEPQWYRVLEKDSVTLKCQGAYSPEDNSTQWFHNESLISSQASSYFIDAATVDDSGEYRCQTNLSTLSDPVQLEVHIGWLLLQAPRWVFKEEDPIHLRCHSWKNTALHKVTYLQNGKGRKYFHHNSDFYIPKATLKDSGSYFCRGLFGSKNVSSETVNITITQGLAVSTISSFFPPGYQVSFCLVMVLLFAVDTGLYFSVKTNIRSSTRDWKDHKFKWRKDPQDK
Procedure: Aliquots of the indicated cell lines were incubated with […] of serial dilutions of His-tagged antibodies in FACS buffer (PBS, Invitrogen, cat.: 14190-169) containing 2% heat-inactivated FCS (Invitrogen, cat.: 10270-106), 0.1% sodium azide (Roth, Karlsruhe, Germany, cat.: A1430.0100) for 45 min on ice. Staining of NK-cells was performed in FACS buffer supplemented with 1 mg/mL polyclonal human antibody (Gammanorm, Octapharma, Langenfeld, Germany, cat.: PZN-2451445) to block binding of antibodies to Fc[…] receptors.
After repeated washing with FACS buffer, cell-bound antibodies were detected with 10 μg/mL anti-His mAb 13/45/31-2 (Dianova, Hamburg, Germany, cat.: DIA910-1MG) followed by 15 μg/mL FITC-conjugated goat anti-mouse antibody (Dianova, cat.: 115-095-062). The cells were then washed again and resuspended in 0.2 mL of FACS buffer containing 2 μg/mL propidium iodide (PI) (Sigma, cat.: P4170) in order to exclude dead cells. The fluorescence of 2-5×10³ living cells was measured using a Beckman-Coulter FC500 MPL flow cytometer using the MXP software (Beckman-Coulter, Krefeld, Germany) or a Millipore Guava EasyCyte flow cytometer (Merck Millipore, Schwalbach, Germany). Mean fluorescence intensities of the cell samples were calculated using CXP software (Beckman-Coulter) or Incyte software (Merck Millipore, Schwalbach, Germany). After subtracting the fluorescence intensity values of the cells stained with the secondary and tertiary reagents alone, the values were used for analysis using the GraphPad Prism (GraphPad Prism version 6.00 for Windows, GraphPad Software, La Jolla Calif. USA). For the calculation of KD, the equation for one-site-binding (hyperbolic) was used.

CD30 [3] = target: T1, CD30; experiment: flow cytometry on KARPAS-299 cells, anti-His detection
Procedure: as §1, §2

CD19 [4] = target: T2, CD19; experiment: flow cytometry on Raji cells, anti-His detection
Procedure: as §1, §2

Measured: binding result

B1: aTriFlex_104 (other)
chain 1: QVQLQQSGAELARPGASVKMSCKASGYTFTTYTIHWVRQRPGHDLEWIGYINPSSGYSDYNQNFKGKTTLTADKSSNTAYMQLNSLTSEDSAVYYCARRADYGNYEYTWFAYWGQGTTVTVSSGGSGGSGGSGGSGGSGGSDIVMTQSPKFMSTSVGDRVTVTCKASQNVGTNVAWFQQKPGQSPKVLIYSASYRYSGVPDRFTGSGSGTDFTLTISNVQSEDLAEYFCQQYHTYPLTFGGGTKLEINGGSGGSGGSSYVLTQPSSVSVAPGQTATISCGGHNIGSKNVHWYQQRPGQSPVLVIYQDNKRPSGIPERFSGSNSGNTATLTISGTQAMDEADYYCQVWDNYSVLFGGGTKLTVLGGSGGSGGSSYVLTQPSSVSVAPGQTATISCGGHNIGSKNVHWYQQRPGQSPVLVIYQDNKRPSGIPERFSGSNSGNTATLTISGTQAMDEADYYCQVWDNYSVLFGGGTKLTVLGGSGGSGGSSYVLTQPPSVSVAPGQTARITCGGNNIGSKTVHWYQQKPGQAPVLVVYDDSDRPSGIPERFSGSNSGNTATLTISRVEAGDEADYYCQVGTDWSDHLQVFGGGTKLTVLGGSGGSGGSGGSGGSGGSGGSEVQLVQSGAEVKKPGESLKISCKGSGYSFTSNWIGWVRQMPGKGLEWMGMIWPGDSDTMYSPSFQGQVTISADESINTAYLQWSSLKASDTAMYYCARRETTTVGRYYYAMDYWGQGTLVTVSSAAAGSDYKDDDDK
chain 2: QVQLVQSGAEVKKPGESLKVSCKASGYTFTSYYMHWVRQAPGQGLEWMGIINPSGGSTSYAQKFQGRVTMTRDTSTSTVYMELSSLRSEDTAVYYCARGSAYYYDFADYWGQGTLVTVSSGGSGGSGGSQVQLVQSGAEVKKPGESLKVSCKASGYTFTSYYMHWVRQAPGQGLEWMGIINPSGGSTSYAQKFQGRVTMTRDTSTSTVYMELSSLRSEDTAVYYCARGSAYYYDFADYWGQGTLVTVSSAAAGSHHHHHH
notes: Tetravalent, trispecific (CD30, CD19, CD16A) Fv antibody without constant domains; heterodimer of two polypeptides; also called antibody molecule d); construct d)
binds: CD30 [1] | CD19 [2] | CD16A (FcγRIIIA)

B2: aTriFlex_101 (other)
chain 1: QVQLQQSGAELARPGASVKMSCKASGYTFTTYTIHWVRQRPGHDLEWIGYINPSSGYSDYNQNFKGKTTLTADKSSNTAYMQLNSLTSEDSAVYYCARRADYGNYEYTWFAYWGQGTTVTVSSGGSGGSGGSGGSGGSGGSDIVMTQSPKFMSTSVGDRVTVTCKASQNVGTNVAWFQQKPGQSPKVLIYSASYRYSGVPDRFTGSGSGTDFTLTISNVQSEDLAEYFCQQYHTYPLTFGGGTKLEINGGSGGSGGSQVQLVQSGAEVKKPGESLKVSCKASGYTFTSYYMHWVRQAPGQGLEWMGIINPSGGSTSYAQKFQGRVTMTRDTSTSTVYMELSSLRSEDTAVYYCARGSAYYYDFADYWGQGTLVTVSSGGSGGSGGSQVQLVQSGAEVKKPGESLKVSCKASGYTFTSYYMHWVRQAPGQGLEWMGIINPSGGSTSYAQKFQGRVTMTRDTSTSTVYMELSSLRSEDTAVYYCARGSAYYYDFADYWGQGTLVTVSSGGSGGSGGSSYVLTQPPSVSVAPGQTARITCGGNNIGSKTVHWYQQKPGQAPVLVVYDDSDRPSGIPERFSGSNSGNTATLTISRVEAGDEADYYCQVGTDWSDHLQVFGGGTKLTVLGGSGGSGGSGGSGGSGGSGGSEVQLVQSGAEVKKPGESLKISCKGSGYSFTSNWIGWVRQMPGKGLEWMGMIWPGDSDTMYSPSFQGQVTISADESINTAYLQWSSLKASDTAMYYCARRETTTVGRYYYAMDYWGQGTLVTVSSAAAGSHHHHHH
chain 2: SYVLTQPSSVSVAPGQTATISCGGHNIGSKNVHWYQQRPGQSPVLVIYQDNKRPSGIPERFSGSNSGNTATLTISGTQAMDEADYYCQVWDNYSVLFGGGTKLTVLGGSGGSGGSSYVLTQPSSVSVAPGQTATISCGGHNIGSKNVHWYQQRPGQSPVLVIYQDNKRPSGIPERFSGSNSGNTATLTISGTQAMDEADYYCQVWDNYSVLFGGGTKLTVLAAAGSDYKDDDDK
notes: Tetravalent, trispecific (CD30, CD19, CD16A) Fv antibody without constant domains; heterodimer of two non-covalently associated polypeptides; also called antibody molecule a); construct a)
binds: CD30 [3] | CD16A (FcγRIIIA) | CD19 [4]

B3: aTriFlex_102 (other)
chain 1: SYVLTQPPSVSVAPGQTARITCGGNNIGSKTVHWYQQKPGQAPVLVVYDDSDRPSGIPERFSGSNSGNTATLTISRVEAGDEADYYCQVGTDWSDHLQVFGGGTKLTVLGGSGGSGGSGGSGGSGGSGGSEVQLVQSGAEVKKPGESLKISCKGSGYSFTSNWIGWVRQMPGKGLEWMGMIWPGDSDTMYSPSFQGQVTISADESINTAYLQWSSLKASDTAMYYCARRETTTVGRYYYAMDYWGQGTLVTVSSGGSGGSGGSQVQLVQSGAEVKKPGESLKVSCKASGYTFTSYYMHWVRQAPGQGLEWMGIINPSGGSTSYAQKFQGRVTMTRDTSTSTVYMELSSLRSEDTAVYYCARGSAYYYDFADYWGQGTLVTVSSGGSGGSGGSQVQLVQSGAEVKKPGESLKVSCKASGYTFTSYYMHWVRQAPGQGLEWMGIINPSGGSTSYAQKFQGRVTMTRDTSTSTVYMELSSLRSEDTAVYYCARGSAYYYDFADYWGQGTLVTVSSGGSGGSGGSQVQLQQSGAELARPGASVKMSCKASGYTFTTYTIHWVRQRPGHDLEWIGYINPSSGYSDYNQNFKGKTTLTADKSSNTAYMQLNSLTSEDSAVYYCARRADYGNYEYTWFAYWGQGTTVTVSSGGSGGSGGSGGSGGSGGSDIVMTQSPKFMSTSVGDRVTVTCKASQNVGTNVAWFQQKPGQSPKVLIYSASYRYSGVPDRFTGSGSGTDFTLTISNVQSEDLAEYFCQQYHTYPLTFGGGTKLEINAAAGSHHHHHH
chain 2: B2 chain 2
notes: Tetravalent, trispecific (CD30, CD19, CD16A) Fv antibody without constant domains; heterodimer of two polypeptides; also called antibody molecule b); construct b)
binds: CD30 [3] | CD16A (FcγRIIIA) | CD19 [4]
